Measurements published in the supplement of paper PMC9233669.
This sample holds only a part of the variants without activity.

Tests used:
biotinyl-Val-oxazolone = experiment: self-aminoacylation, catalytic enhancement (BVO) (fold over background); higher = more active; k-Seq, kA / k0A0; sequences stand for … in GGGAAUGGAUCCACAUCUACGAAUUC…UUCACUGCAGACUUGACGAAGCUG
In short: (§1)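 Mutagenized RNA pools with a 21-nt variable region (0.43 μM) were reacted with each biotinyl-aminoacyl-oxazolone at 2–1250 μM for 90 minutes at room temperature, in 50 μL HEPES/NaCl/KCl/MgCl2/CaCl2 buffer containing 5% acetonitrile at pH 6.9–7.0. RNA captured on streptavidin was quantified by triplicate qPCR and by Illumina sequencing. The fraction reacted for each sequence was fit to a pseudo-first-order model with bootstrapping, and catalytic enhancement is the median kA divided by the uncatalyzed rate, taken as the low-activity peak of a bimodal Gaussian fit.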

biotinyl-Met-oxazolone = experiment: self-aminoacylation, catalytic enhancement (BMO) (fold over background); higher = more active; k-Seq, kA / k0A0; sequences stand for … in GGGAAUGGAUCCACAUCUACGAAUUC…UUCACUGCAGACUUGACGAAGCUG
In short: as §1

biotinyl-Leu-oxazolone = experiment: self-aminoacylation, catalytic enhancement (BLO) (fold over background); higher = more active; k-Seq, kA / k0A0; sequences stand for … in GGGAAUGGAUCCACAUCUACGAAUUC…UUCACUGCAGACUUGACGAAGCUG
In short: as §1

biotinyl-Phe-oxazolone = experiment: self-aminoacylation, catalytic enhancement (BFO) (fold over background); higher = more active; k-Seq, kA / k0A0; sequences stand for … in GGGAAUGGAUCCACAUCUACGAAUUC…UUCACUGCAGACUUGACGAAGCUG
In short: as §1

biotinyl-Trp-oxazolone = experiment: self-aminoacylation, catalytic enhancement (BWO) (fold over background); higher = more active; k-Seq, kA / k0A0; sequences stand for … in GGGAAUGGAUCCACAUCUACGAAUUC…UUCACUGCAGACUUGACGAAGCUG
In short: as §1

biotinyl-Ile-oxazolone = experiment: self-aminoacylation, catalytic enhancement (BIO) (fold over background); higher = more active; k-Seq, kA / k0A0; sequences stand for … in GGGAAUGGAUCCACAUCUACGAAUUC…UUCACUGCAGACUUGACGAAGCUG
In short: as §1

Sequence	self-aminoacylation (biotinyl-Val-oxazolone)	self-aminoacylation (biotinyl-Met-oxazolone)	self-aminoacylation (biotinyl-Leu-oxazolone)	self-aminoacylation (biotinyl-Phe-oxazolone)	self-aminoacylation (biotinyl-Trp-oxazolone)	self-aminoacylation (biotinyl-Ile-oxazolone)
AUUCACUUAGGUCAUCGCGUG [Fam2.2 aminoacylation ribozyme variant]	6.11	11.7	15	94.5	11.1	6.03
AAGUUUGCUAAUAGUAACAAG [Fam3.1 aminoacylation ribozyme variant]	1.1	1.52	1.12	1.58	1.41	1.19
CCACACUUCAAGCAGUCGGUG [Fam1B.1 aminoacylation ribozyme variant]	2.29	2.34	3.56	18.4	2.1	2.18
AUUACCCUGGUCACCAAGUGA [Fam2.1 aminoacylation ribozyme variant]	3.32	6.45	6.54	34.3	7.7	3.47
CCACACUUCAUGCGAUCGGUC [Fam1B.1 aminoacylation ribozyme variant]	1.17	0.828	1.12	0.762	0.917	1.1
AUUCACUUAUGUCAUCGGGUG [Fam2.2 aminoacylation ribozyme variant]	3.08	5.5	7.31	42.6	5.18	3.42
AAGUUUUCUAAGAGUCGCAAG [Fam3.1 aminoacylation ribozyme variant]	1.62	1.32	1.62	3.16	1.51	1.65
AAGUCUGCUAAAAGUCGCAAG [Fam3.1 aminoacylation ribozyme variant]	1.23	1.92	1.72	23.1	6.66	1.35
AAGGUUGCUAAUUGUCGCAAG [Fam3.1 aminoacylation ribozyme variant]	1.41	1.36	1.14	1.4	2.85	1.56
AUUCACCAAGGUCAUCGGGAG [Fam2.2 aminoacylation ribozyme variant]	1.11	1.19	1.57	4.38	1.27	1.36
AAGUUUGCUAUUAGGCGCAAG [Fam3.1 aminoacylation ribozyme variant]	0.681	0.591	0.546	0.81	0.841	0.746
AUUACCCUGGUCAUCGAGCGG [Fam2.1 aminoacylation ribozyme variant]	1.8	2.38	2.9	1.12	1.61	1.95
CUACUUCUAACAAUCCGUCUG [Fam1A.1 aminoacylation ribozyme variant]	0.792	0.679	0.656	0.709	0.586	0.905
AUUCCCCUAGGUCAUCGGGUG [Fam2.2 aminoacylation ribozyme variant]	14.9	24.4	32.9	196	23.2	14.9
ACUACCCUGGUCAGCGAGUGA [Fam2.1 aminoacylation ribozyme variant]	4.6	6.39	6.39	38.3	6.58	4.51
CUACUUCAUACAAUGGGUCUG [Fam1A.1 aminoacylation ribozyme variant]	0.757	0.755	0.803	0.65	0.764	0.805
AAUUUUGCUAAUCGUCGCAAG [Fam3.1 aminoacylation ribozyme variant]	1.56	1.53	1.37	2.37	1.62	1.91
CCACACUGCAAGCAAUCGGUG [Fam1B.1 aminoacylation ribozyme variant]	3.12	4.9	7.11	31.5	5.82	3.4
AUUACCCGGGUCAUCUAGUGA [Fam2.1 aminoacylation ribozyme variant]	5.08	9.33	11	70.8	11.2	4.46
AUUACCCUAGUCAUCGAGUUA [Fam2.1 aminoacylation ribozyme variant]	1.17	0.978	0.9	1.05	0.53	0.922
AAGUCUGUUAAUAGUCGCAAG [Fam3.1 aminoacylation ribozyme variant]	1.03	1.03	1.01	1.04	0.936	1.14
CCACGCUUCAAGCGAUCGGUC [Fam1B.1 aminoacylation ribozyme variant]	1.2	1.14	1.05	2.6	3.3	0.888
AUGACCCUGGACAUCGAGUGA [Fam2.1 aminoacylation ribozyme variant]	2.11	5.12	3.95	15.9	5.26	2.27
AUUCACCUAGGUCUGCGGGUG [Fam2.2 aminoacylation ribozyme variant]	2.58	4.69	4.85	12.8	3.44	3.08
AUCCAACUAGGUCAUCGGGUG [Fam2.2 aminoacylation ribozyme variant]	4.93	8.53	9.99	80.9	8.01	5.82
AUUACCCUGGUCCUCGAGCGA [Fam2.1 aminoacylation ribozyme variant]	1.77	1.97	1.25	3.24	1.68	1.46

Sequence	self-aminoacylation (biotinyl-Val-oxazolone)	self-aminoacylation (biotinyl-Met-oxazolone)	self-aminoacylation (biotinyl-Leu-oxazolone)	self-aminoacylation (biotinyl-Phe-oxazolone)	self-aminoacylation (biotinyl-Trp-oxazolone)	self-aminoacylation (biotinyl-Ile-oxazolone)
AUGCACCUAGGUCUUCGGGUG [Fam2.2 aminoacylation ribozyme variant]	4.2	4.93	4.14	40	5.59	3.64
AAGUAUGCCAAUAGUCGCAAG [Fam3.1 aminoacylation ribozyme variant]	1.46	1.77	1.53	2.34	1.43	2.21
AUUACUCUGGUCAACGAGUGA [Fam2.1 aminoacylation ribozyme variant]	2.76	5	5.72	26.9	7.22	3.12
CUACUUUAAACAAUCGGCCUG [Fam1A.1 aminoacylation ribozyme variant]	1.03	1.24	0.974	0.942	2.02	1.2
AAUCUCCUAGGUCAUCGGGUG [Fam2.2 aminoacylation ribozyme variant]	4.51	6.93	6.83	35.1	5.91	4.3
AUUCGCCUAGGGCAUCGGGUG [Fam2.2 aminoacylation ribozyme variant]	3.45	5.3	5.64	26.1	4.92	3.24
CCACACUUCAAGCAACCGGUG [Fam1B.1 aminoacylation ribozyme variant]	4	5.05	7.08	33.9	6.05	3.92
CCACACUUCAGGCAAUCGGGC [Fam1B.1 aminoacylation ribozyme variant]	3.35	1.37	2.45	11	2.21	2.46
AUGUUUGAUAAUAGUCGCAAG [Fam3.1 aminoacylation ribozyme variant]	1.17	1.35	1.09	1.59	1.45	1.65
CUACUUCAAACAACCGGGCUG [Fam1A.1 aminoacylation ribozyme variant]	1.22	1.35	1.27	2.15	0.852	1.46
CUUACCCUGGUCAUCGUGUGA [Fam2.1 aminoacylation ribozyme variant]	2.11	2.8	2.87	11.1	2.98	1.79
CAACACGUCAAGCAAUCGGUC [Fam1B.1 aminoacylation ribozyme variant]	1.22	1.44	1.37	1.33	1.47	1.11
CCAAAGUUCAAGCAAUCGGUC [Fam1B.1 aminoacylation ribozyme variant]	1.4	1.32	1.28	1.35	1.17	1.35
CCGCACUUCGAGCAAUCGGUC [Fam1B.1 aminoacylation ribozyme variant]	2.27	1.46	1.46	5.29	2.26	1.22
AAGUUUGCUGAUAGUCCCAAG [Fam3.1 aminoacylation ribozyme variant]	0.847	0.626	0.786	0.972	1.08	1.17
AUUACCCGGGUCAUGGAGUGA [Fam2.1 aminoacylation ribozyme variant]	2.87	4.26	4.59	25.8	4.98	2.82
AAAUUUGCUAAUAGUCGCAAC [Fam3.1 aminoacylation ribozyme variant]	1.51	1.31	1.91	1.64	1.52	1.88
CUACUUCAAUCAAUCAGUCUG [Fam1A.1 aminoacylation ribozyme variant]	0.86	0.809	0.946	16.5	6.4	0.942
CCACACUUUAAGCAAUCGGAC [Fam1B.1 aminoacylation ribozyme variant]	0.839	0.664	0.737	0.866	0.544	0.85
CCACACUUCAAGCAAGCGGGC [Fam1B.1 aminoacylation ribozyme variant]	2.29	2.41	1.59	6.38	2.67	1.61
AUUCACCUAGAUCAACGGGUG [Fam2.2 aminoacylation ribozyme variant]	2.49	4.52	5.41	25.3	4.38	2.73
AUUCACCCAGGUCAUCGUGUG [Fam2.2 aminoacylation ribozyme variant]	1.04	1.04	1.29	3.46	1.1	0.798
GUUAUCCUGGUCAUCGAGUGA [Fam2.1 aminoacylation ribozyme variant]	5.41	10.9	9.81	16.1	13.1	6.24
AAGUUUGCUAACCGUCGCAAG [Fam3.1 aminoacylation ribozyme variant]	0.754	0.567	0.755	0.981	0.488	0.714
UCGCACUUCAAGCAAUCGGUC [Fam1B.1 aminoacylation ribozyme variant]	1.61	1.44	2.14	55.1	29.8	1.38
